Measurements from paper PMC4267838.

Target: histone deacetylase 5 (rat (endogenous in Sprague-Dawley rat cardiac myocytes))
Assay: co-IP; HDAC5 precipitated from equal amounts of cardiac myocyte nuclear extracts, 14-3-3 detected by western blotting; cells treated with vehicle, ET1 (0.1 µM), PPAR ligands (troglitazone 1 µM, fenofibrate 10 µM, GW501516 1 µM), with or without shRNA knockdown of DGKζ

percent of normalized 14-3-3 in HDAC5 precipitates of ET1-treated cells vs. vehicle-treated control (% vs. control): 138
Substance: 14-3-3 chaperone proteins (from UniProt P63102 1-245) (natural protein)
